Measured values taken from doi:10.1101/790931.
No end group written: not given here.

Columns and labels:
[1] = target: FITC-labelled P. aeruginosa TolB[22-34] peptide (Pseudomonas aeruginosa); experiment: fluorescence polarisation
[2] = target: T1, C-terminal domain of E. coli TolA (E. coli); experiment: ITC
T1 sequence (P19934 whole entry, looked up): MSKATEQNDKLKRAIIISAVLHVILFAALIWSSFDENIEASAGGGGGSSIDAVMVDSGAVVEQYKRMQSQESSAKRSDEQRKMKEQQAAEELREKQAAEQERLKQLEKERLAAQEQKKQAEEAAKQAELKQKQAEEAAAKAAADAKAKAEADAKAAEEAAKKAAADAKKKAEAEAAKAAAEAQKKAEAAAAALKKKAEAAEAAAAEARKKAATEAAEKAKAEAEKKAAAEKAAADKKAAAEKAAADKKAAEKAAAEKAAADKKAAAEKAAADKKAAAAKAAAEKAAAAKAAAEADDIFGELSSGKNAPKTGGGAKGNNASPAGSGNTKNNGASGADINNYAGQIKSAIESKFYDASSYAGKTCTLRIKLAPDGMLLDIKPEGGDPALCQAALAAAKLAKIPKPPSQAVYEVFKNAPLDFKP

Chain of P. aeruginosa TolA (residues 224-344) lacking its short C-terminal α-helix (P50600 224-344): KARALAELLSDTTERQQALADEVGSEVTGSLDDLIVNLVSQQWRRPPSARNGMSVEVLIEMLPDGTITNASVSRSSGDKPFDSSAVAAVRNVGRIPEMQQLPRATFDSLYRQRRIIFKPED
Chain of C-terminal domain of Pseudomonas aeruginosa TolA (TolA^224-347) (P50600 224-347): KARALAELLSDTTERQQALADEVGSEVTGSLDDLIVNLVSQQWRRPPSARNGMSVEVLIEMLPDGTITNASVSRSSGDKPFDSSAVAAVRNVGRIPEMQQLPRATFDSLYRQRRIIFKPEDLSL

In the case of “C-terminal domain of Pseudomonas aeruginosa TolA (TolA^224-347) (from UniProt P50600 224-347) (domain or fragment)”, the Kd [1] is reported as 250 µM, the koff [1] is reported as 0.9 s⁻¹ and the kon [1] is reported as 7400 M⁻¹ s⁻¹.

In the case of “P. aeruginosa TolA (residues 224-344) lacking its short C-terminal α-helix (from UniProt P50600 224-344) (domain or fragment)”, the Kd [1] is reported as 86 µM, the koff [1] is reported as 1.4 s⁻¹ and the kon [1] is reported as 23800 M⁻¹ s⁻¹.

EVRIVIDSGVDS-NH2 [E. coli TolB peptide (residues 22-33)] gave a Kd [2] of 44 µM, a dH [2] of -3.79 kcal/mol and a stoichiometry N [2] of 0.56.
